Laboratory results taken from patent US20220119522A1 (DENALI THERAPEUTICS, published 2022).
Changes are numbered by the printed parent chain. No end group written: not given here.

T1: His-tagged human TREM2 ECD (human, UniProt Q9NZC2 19-172)
T1 construct: Biacore and HDX say only recombinant human TREM2 (ECD); also called recombinant human TREM2; hTREM2
T1 sequence: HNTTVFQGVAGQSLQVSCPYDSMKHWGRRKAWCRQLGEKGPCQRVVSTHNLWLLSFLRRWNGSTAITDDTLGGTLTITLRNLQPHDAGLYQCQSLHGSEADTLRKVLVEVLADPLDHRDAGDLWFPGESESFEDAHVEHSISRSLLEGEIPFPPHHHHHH

T2: human TREM2 on the cell surface (human, UniProt Q9NZC2 19-230)
T2 sequence: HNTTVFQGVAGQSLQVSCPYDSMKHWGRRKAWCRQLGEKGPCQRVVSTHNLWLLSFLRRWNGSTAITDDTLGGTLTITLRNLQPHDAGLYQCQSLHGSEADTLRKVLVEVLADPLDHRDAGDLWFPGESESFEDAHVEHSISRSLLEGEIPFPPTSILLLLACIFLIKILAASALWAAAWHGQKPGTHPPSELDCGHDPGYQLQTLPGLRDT

T3: mouse TREM2 full length stalk region peptide (aa 131-169) (mouse, UniProt Q99NH8 131-169, biotinylated (site not stated))
T3 peptide (looked up): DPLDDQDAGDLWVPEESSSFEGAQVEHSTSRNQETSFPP

T4: human TREM2 truncated stalk peptide (aa 149-163) (human, also: biotinylated (site not given here))
T4 construct: also called Human TREM2 peptide (aa 149-163); truncated stalk peptide containing the ADAM10/17 cleavage site
T4 peptide: SFEDAHVEHSISRSL

T5: human TREM2 full length stalk region peptide (aa 129-172) (human, biotinylated (site not stated))
T5 construct: also called Human TREM2 peptide (aa 129-172); full-length TREM2 stalk peptide
T5 peptide: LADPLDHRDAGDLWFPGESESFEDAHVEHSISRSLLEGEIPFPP

B1: CL0020141 (antibody, V domains shown)
VH: EVTLVESGGGLVQPGGSLRLSCATSGFTFTDYYMSWVRQPPGKALEWLGFIRDKANGYTTDYSASVKGRFTISRDNSQNILYLQMNTLRAEDSATYYCSRLLRAQGFAYWGQGTLVTVSA
VL: DIVMSQSPSSLGVSIGEKVIMSCTSGQSLLYSNNQKNYLAWYQQKPGQSPKLLIYWASTRESGVPDRFTGSGSGTDFTLTINSVKAEDLAVYYCQQYYRNPFTFGSGTKLEIK
notes: also called Clone CL0020141
B2: CL0020124 (antibody, V domains shown)
VH: EVQLQQSGPVLVKPGASVKMSCKPSGYTFTDYYMNWVKQSHGKSLEWIGSINPYTGGSSYNQKFRGKATLTVDKSSSTAYMELNSLTSEDSAVYYCARGSYYSNLGFAYWGQGTLVTVSA
VL: DVQLTQSPSYLTASPGETITINCRASKSISKYLAWYQEKPGKTNKLLISSGSTLQSGIPSRFSGSGSGTDFTLTISSLEPEDFAMYYCQQYSEYPFTFGSGTKLEIK
notes: also called Clone CL0020124
B3: CL0020161 (antibody, V domains shown)
VH: EVQLVESGGGLVQPGRSMKLSCAALGFTFSNYYMAWVRQAPRKGLEWVASISTGGDNTYYRDSVKGRFTISRDNAKSTLYMQMDSLRSEDTATYYCVRSFIVGTTGYYFDYWGQGVMVTVSS
VL: DIVLTQSPALAVSLGQRATISCKTNQNVDYYGNNYMHWYQQTPGQQPKLLIYFASNLASGIPARFSGRGSGTDFTLTIDPVEADDTATYYCQQSRNLPTFGGGTKLELK
notes: also called Clone CL0020161
B4: CL0020215 (antibody, V domains shown)
VH: QVQLQQPGAELVKPGASVKMSCKASGYTFTNYWIMWVKQRPGQGLEWIGDIYPSSGSTNYNEKFKNRATLTVDTSSNTAYMQLSSLTSEDSAVYFCSREGYGISAWGQGTTLTVSS
VL: QIVLTQSPAIMSASPGEKVTITCSASSSVSYMHWFQQKPGTSPKLWIYSTSNLASGVPARFSGSGSGTSCSLTISRMEAEDAATYYCQQRSSFPLTFGAGTKLELK
notes: also called Clone CL0020215
B5: CL0020111 (antibody, V domains shown)
VH: B4 VH with E10D, M35T, K38Q, S54G, S57N, K65R, N66S, R67K, F95Y
VL: B4 VL with I10F, S24R, Y48F, C70H, S92G, F93Y
notes: also called Clone CL0020111
B6: CL0020162 (antibody, V domains shown)
VH: QIQLVQSGPELKKPGESLKISCKASGYTFTDYAMQWVKQAPEKGLQYMGWINTQTGKPTYADDFKERFVFSLETSATTAYLQINNLKNEDMATYFCVRSYNNYENWFAYWGQGTLVTVSS
VL: DIVMTQSPSSLAVSAGETVTINCKSSQSLLYSGNQKNYLAWYQQKPGQSPKVLIYWASTRQFGVPDRFIGSGSGTDFTLTISSVQAEDLAIYYCQQYYNSPITFGSGTKLEIK
notes: also called Clone CL0020162
B7: CL0020109 (antibody, V domains shown)
VH: EVQLQQSGPVLVKPGASLKMSCRASGYTFTDYYVHWVKQSHGKSLEWIGLINPYTGTTSYNQRFKGKATLTVDKSSSTAYMEVNSLTSEDSAVYYCARSRVYYGSSLFAFWGQGTLVTVSA
VL: DIVMTQSPSSLSVSAGEKVTMSCKSSQSLLNSGNQKNYLAWYQQKPGQPPKLLIYGASTRESGVPDRFTGSGSGTDFTLTISSVQAEDLAVYYCQNDHSYPYTFGGGTKLEIK
notes: also called Clone CL0020109
B8: CL0020214 (antibody, V domains shown)
VH: QVRLQQSGAELVRPGSSVKLSCKASGYAFSSYWMNWVKQRPGQGLEWIGQIYPGDGDTNYNGNFKGKATLTADNSSSTAYMQLSSLTSEDSAVYFCARRRNGDFGDYAMDYWGQGTSVTVSS
VL: QIVLTQSPAIMSASPGEKVTISCSASSSVSYMCWYQQKPGSSPKPWIYRTSTLASGVPARFSGSGSGTSYSLTISSMEAADAATYYCQHYHSYPFTFGAGTKLELK
notes: also called Clone CL0020214
B9: CL0020173 (antibody, V domains shown)
VH: EVKLLESGGGLVQPGSSMRLSCAASGFTFTDFYMNWIRQPAGRAPEWLGFFRNIVDGYTTEYNPSVKGRFTISRDNTQNMLYLQMNTLRAEDTATYYCARSGYSSYIYGGTFAYWGQGTLVTVSS
VL: ETVMTQSPTSMSTSIGERVTLNCKASQSVGIHVDWYQQTPGQSPKLLIYGASNRHTGVPDRFTGSGFGRDFTLTISNVEAEDLAVYYCLQYGSIPWTFGGGTKLELK
notes: also called Clone CL0020173
B10: CL0020103 (antibody, V domains shown)
VH: EVQLQQSGPELVKPGASVKISCKTSGYTFTEYTMHWVKESHGKSLEWIGGINPNKGGSSYNQKFKGKATLTVDKSSSTAYMDLRRLTSEDSAVYYCARGGYEYYALDYWGQGTSVTVSS
VL: DIVMSQSPSSLTVSVGERVTMSCKSSQSLLYSRNQKNYLAWYQQKPGQSPKLLIYWASTRESGVPDRFTGSGSGTDFSLTISSVKAEDLAVYYCQQYYSYPPTFGGGTKLEIK
notes: also called Clone CL0020103
B11: CL0020164 (antibody, V domains shown)
VH: EVKLLESGGGLVQPGGSLRLSCAASGFTFTDFYMSWIRQPPGKAPEWLGVIRNKANGFTTEYNTSVKGRFTISRDYTQNILHLQTNTLRAEDTAIYYCARLTYGFDYWGQGVMVTVSS
VL: DIVMTQGALPNPVPSGESASITCQSSKSLLHSNGKTYLNWYLQRPGQSPQFLIYWMSTRASGVSDRFSGSGSGTDFTLKISSVEAEDVGVYYCQQFLELPFTFGSGTKLEIK
notes: also called Clone CL0020164
B12: CL0020186 (antibody, V domains shown)
VH: EVQLVESGGGLVQPGRSLKLSCPASGFTFSYYGMAWVRQAPTKGLEWVASISTGGGNTYYRDSVKGRFTISRDNAKNTLYLQMDSLRSEDTATYYCARGDIGTAYWFTYWGQGTLVTVSS
VL: NIQLTQSPSLLSASVGDRVTLSCKGSQNINNYLAWYQQKLGEAPKLLIYKTNSLLTGIPSRFSGSGSGTDYTLTISSLHSEDLATYYCYQYNNGWTFGGGTKLELK
notes: also called Clone CL0020186

These binders were tested against T1, His-tagged human TREM2 ECD (assay: SPR (Biacore), antibody captured via anti-human Fab, recombinant TREM2 ECD injected, 1:1 fit).
Procedure: Surface plasmon resonance (Biacore™ 8K instrument) was used to measure anti-TREM2 antibody affinities for human and cynomolgus TREM2 ECD. Anti-TREM2 antibodies were captured using Human Fab Capture Kit (GE Healthcare Life Sciences, Catalog No. 28958325) on a Biacore Series S CM5 sensor chip (GE Healthcare Life Sciences, Catalog No. 29149604). Serial 3-fold dilutions of recombinant human or cynomolgus TREM2 were injected at a flow rate of 30 μL/min. Antibody binding was monitored for 300 seconds, followed by monitoring of antibody dissociation for 600+seconds in HBS-EP+ running buffer (GE Healthcare Life Sciences, Catalog No. BR100669). The binding response was corrected by subtracting the RU value from a blank flow cell. A 1:1 Languir model of simultaneous fitting of kₒₙ and koff was used for kinetics analysis.

For B1, which Kd is on record?
The Kd was 4.6 nM.

What follows are binders tested against T2, human TREM2 on the cell surface (assay: cell-based or functional assay).

With B1 as the binder, how does the “NFAT EC50 (nM), plate coated mAb” value read?
The value was 25.5 nM.

What about the “Survival EC50 (nM), plate coated mAb, human macrophages” value of the same binder?
Its value is 2 nM.

What about the “pSyk activation (human macrophages) EC50 (nM)” value of the same binder?
Its value is 5.9 nM.

What follows are binders tested against T2, human TREM2 on the cell surface (assay: cell binding, human macrophages, dose titration).

For B1, which EC50 is on record?
The EC50 was 0.6 nM.

Target: T3, mouse TREM2 full length stalk region …
Assay: ELISA on biotinylated peptide captured by streptavidin; A450 normalised to isotype control
Procedure: (§1) TREM2 antibodies were evaluated for binding to human and mouse TREM2 stalk region peptides. […] Antibody binding to TREM2 stalk peptides was detected using standard sandwich ELISA. Briefly, a 96-well half-area ELISA plate was coated with streptavidin overnight at 4° C. The following day, biotinylated TREM2 stalk peptides diluted in 1% BSA/PBS were added to the plate and incubated for 1 hour. Antibodies diluted in 1% BSA/PBS were then added and incubated for 1 hour. Antibodies bound to peptide were detected with anti-human kappa-HRP secondary antibody (Bethyl Laboratories, Inc.) diluted in 1% BSA/PBS. Plates were assayed by reaction with a detection reagent (One-step TMB Ultra, Thermo) and measurement of absorbance at 450 nm (A450) by standard spectrophotometry instrumentation (BioTek®). Data are shown as normalized values (fold over background where background=isotype control).

With B2 as the binder, how does the “fold over background (A450)” value read?
Its value is 1.6 fold.

How did the “fold over background (A450)” value turn out when B3 was run?
Its value is 1.2 fold.

B4 was tested. Which “fold over background (A450)” value did it give?
Its value is 1.1 fold.

For B5, which “fold over background (A450)” value is on record?
Its value is 1.1 fold.

How did the “fold over background (A450)” value turn out when B6 was run?
The value was 10 fold.

B7 was tested. Which “fold over background (A450)” value did it give?
Its value is 1.7 fold.

With B8 as the binder, how does the “fold over background (A450)” value read?
The value was 1.3 fold.

Which “fold over background (A450)” value does the source give for B9 here?
The value was 1.2 fold.

B10 was tested. Which “fold over background (A450)” value did it give?
The value was 4.1 fold.

Which “fold over background (A450)” value does the source give for B11 here?
The value was 51 fold.

With B12 as the binder, how does the “fold over background (A450)” value read?
The value was 7 fold.

Target: T4, human TREM2 truncated stalk peptide (aa …)
Assay: as above
Procedure: as §1

For B2, which “fold over background (A450)” value is on record?
The value was 1.5 fold.

B3 was tested. Which “fold over background (A450)” value did it give?
Its value is 1 fold.

For B4, which “fold over background (A450)” value is on record?
The value was 1.1 fold.

For B5, which “fold over background (A450)” value is on record?
Its value is 1.6 fold.

For B6, which “fold over background (A450)” value is on record?
Its value is 1.3 fold.

With B7 as the binder, how does the “fold over background (A450)” value read?
Its value is 1.5 fold.

With B8 as the binder, how does the “fold over background (A450)” value read?
Its value is 1.3 fold.

Which “fold over background (A450)” value does the source give for B9 here?
Its value is 1.2 fold.

Which “fold over background (A450)” value does the source give for B10 here?
Its value is 1.8 fold.

Which “fold over background (A450)” value does the source give for B11 here?
The value was 1.4 fold.

How did the “fold over background (A450)” value turn out when B12 was run?
The value was 1.3 fold.

Target: T5, human TREM2 full length stalk region …
Assay: as above
Procedure: as §1

B3 was tested. Which “fold over background (A450)” value did it give?
The value was 1.4 fold.

B4 was tested. Which “fold over background (A450)” value did it give?
Its value is 1.2 fold.

Which “fold over background (A450)” value does the source give for B5 here?
The value was 1.3 fold.

For B6, which “fold over background (A450)” value is on record?
Its value is 49 fold.

B7 was tested. Which “fold over background (A450)” value did it give?
The value was 1.7 fold.

Which “fold over background (A450)” value does the source give for B8 here?
Its value is 1.5 fold.

Which “fold over background (A450)” value does the source give for B9 here?
The value was 1.6 fold.

With B10 as the binder, how does the “fold over background (A450)” value read?
The value was 56 fold.

With B11 as the binder, how does the “fold over background (A450)” value read?
Its value is 50 fold.

B1 was tested. Which “fold over background (A450)” value did it give?
Its value is 45 fold.

With B12 as the binder, how does the “fold over background (A450)” value read?
Its value is 4.9 fold.
